Laboratory results from paper PMC8452012, “Branched chain fatty acid synthesis drives tissue-specific innate immune response and infection dynamics of Staphylococcus aureus” (PLoS Pathogens, 2021).

Key:
Assay in all cases: purified protein
Details in all cases: pH 8.0, 25 °C, 50 mM Tris-HCl, 1 mg/mL arabic gum, 0.05% Triton X-100, 10% isopropanol
[1] = system: CCC(C)CCCCCCCCCCC(=O)Oc1ccc([N+](=O)[O-])cc1
[2] = system: CCCCCCCC/C=C\CCCCCCCC(=O)Oc1ccc([N+](=O)[O-])cc1
[3] = system: CCCC(=O)Oc1ccc([N+](=O)[O-])cc1

Substance | Km [1] | Km [2] | Km [3]
Geh (Sal2); Geh-6xHis (Staphylococcus aureus subsp. aureus NCTC 8325) | 74.1 µM | 160.5 µM | –
Sal1; Sal1-6xHis (Staphylococcus aureus subsp. aureus USA300) | – | – | 332.4 µM
